{"source": "patent US20220306728A1", "about": "(VIR BIOTECHNOLOGY, published 2022)", "key": {"[1]": {"molecular_target": "H3N2 representative viral strain (hemagglutinin), Example 6", "test": "cell-based or functional assay"}, "[2]": {"molecular_target": "H1N1 representative viral strain (hemagglutinin), Example 6", "test": "cell-based or functional assay"}}, "data": [{"binder": "FluAB_MLNS (antibody) heavy: not shown light: DIQMTQSPSSLSASVGDRVTITCRTSQSLSSYTHWYQQKPGKAPKLLIYAASSRGSGVPSRFSGSGSGTDFTLTISSLQPEDFATYYCQQSRTFGQGTKVEIKRTVAAPSVFIFPPSDEQLKSGTASVVCLLNNFYPREAKVQWKVDNALQSGNSQESVTEQDSKDSTYSLSSTLTLSKADYEKHKVYACEVTHQGLSSPVTKSFNRGEC", "values": [{"measurement": "IC50 of in vitro neutralization (MDCK cells, neuraminidase activity read-out)", "setting": "[1]", "result": 17.9, "unit": "nM"}, {"measurement": "IC50 of in vitro neutralization (MDCK cells, neuraminidase activity read-out)", "setting": "[2]", "result": 15.6, "unit": "nM"}]}]}
